From paper PMC11050682, “https://orcid.org/0009-0003-0282-9605 Pérez-Mora Salvador Conceptualization Methodology Software Validation Formal analysis Investigation Data curation Writing – original draft Writing – review & edit”

Molecular target: T1, drEhHSTF5 (dimeric rEhHSTF5, fraction 10) (Entamoeba histolytica, UniProt C4M5X4 1-329)
T1 sequence: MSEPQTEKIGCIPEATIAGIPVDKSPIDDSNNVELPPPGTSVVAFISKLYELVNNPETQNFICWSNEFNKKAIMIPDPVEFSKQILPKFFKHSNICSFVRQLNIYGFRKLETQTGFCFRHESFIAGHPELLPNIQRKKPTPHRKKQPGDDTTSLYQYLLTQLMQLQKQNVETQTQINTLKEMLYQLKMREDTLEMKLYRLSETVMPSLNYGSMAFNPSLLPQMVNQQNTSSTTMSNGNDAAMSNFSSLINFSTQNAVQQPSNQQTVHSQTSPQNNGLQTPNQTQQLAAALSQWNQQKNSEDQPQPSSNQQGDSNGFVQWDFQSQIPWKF
Experiment: competition; 150x molar excess; complex reduced
Details: protein: recombinant; tags: N-terminal His6 (pET-28a); chain copies: 2; blunt

B1: HSE_EhPgp5 unlabelled (specific competitor) (dsDNA)
DNA 1: ATAGAAATTTTTCATA
DNA 2: TATGAAAAATTTCTAT
B1: binds.
